Measured values reported in patent publication US20070105162A1, “Monovalent avidin and streptavidin compositions” (Massachusetts Institute of Technology, priority 2005, published 2007).

Experiments:
[1] = Kd of D4 by 3H-biotin binding and protein precipitation; conditions: 24 μM D4, increasing 3H-biotin (0-500 μM), >20 hr room temperature; ± s.e.m.
Description: After incubation at room temperature for 20 hr, the protein was precipitated by adding 50 μL to 200 μL 0.2 M ZnSO4 followed by 200 μL 0.2 M NaOH. The protein precipitate was pelleted by centrifugation at 16,500 g for 5 min. The biotin bound by D4 was calculated from the total ^3H-biotin added minus the ^3H-biotin in the supernatant. The Kd was obtained using a nonlinear regression analysis (one-site binding hyperbola) with SigmaPlot (Systat Software; Point Richmond, Calif.).

[2] = Subunit exchange of monovalent streptavidin over time by SDS-PAGE; type: physicochemical; conditions: for A1D3 rearranged into D4: PBS
Description: Methods described in the Methods section above herein were used for the following production and testing of monovalent streptavidin. Tests were performed to determine whether monovalent streptavidin would rearrange its subunit composition over time.

[3] = system: biotinylated AP-neuroligin-1 on hippocampal neurons; assay: AP-neuroligin-1 clustering in hippocampal neurons labeled with streptavidin; type: cell-based, rat; conditions: two hour incubation at 37° C., Alexa Fluor 568 conjugate; ± s.e.m., n=9
Description: HeLa cells were grown in Dulbecco's Modified Eagle Medium (DMEM) with 10% Fetal Calf Serum, 50 U/mL penicillin and 50 μg/mL streptomycin. HeLa stably expressing AP-CFP-TM or Ala-CFP-TM have been previously described (Howarth, M. et al., Proc. Natl. Acad. Sci. USA 102: 7583-7588, 2005). Dissociated primary neuronal cultures were prepared from Embryonic Day 18 or 19 (E18/19) rats and transfected with Lipofectamine 2000 at DIV6 as in Levinson et al. (Levinson, J. N. et al., J. Biol. Chem. 280: 17312-17319, 2005). […]
Images of HeLa cells were collected on a Zeiss Axiovert 200M inverted epifluorescence microscope using a 40× oil-immersion lens and a MicroMAX CCD camera (Roper Scientific; Tucson, Ariz.). CFP (420DF20 excitation, 450DRLP dichroic, 475DF40 emission) and Alexa568 (560DF20 excitation, 585DRLP dichroic, 605DF30 emission) images were collected and analyzed using OpenLab software (Improvision; Lexington, Mass.). Fluorescence images were background-corrected. […] Images were scaled to 16 bits and analyzed in Northern Eclipse (Empix Imaging; Ontario, Canada) with user-written software. […] Results were then calculated in terms of clusters per micrometer of dendrite. For assessment of pre-synaptic terminals, clusters were determined as before and average grey levels of clusters were compared between transfected dendrites and untransfected dendrites within the same field of view. […]

Substance | Kd [1] [µM] | A1D3 rearranged into D4 ([2]; 37° C. incubation for one day) [%] | Formation of A2D2 from subunit exchange ([2]; 37° C. one day or room temperature one week) | A1D3 rearranged into D4 ([2]; room temperature incubation for one week) [%] | AP-neuroligin-1 clusters per micrometer of dendrite [3] [clusters/μm]
D4: Streptavidin tetramer with 4 dead subunits (D: N23A, S27D, S45A, SEQ ID NO:3) [Tetramer D4] | 918 ± 0.0117 |  |  |  | 
A1D3: Monovalent streptavidin tetramer: one His6-tagged wild-type (A) subunit and three dead (D) subunits [Tetramer A1D3] |  | 2 | not detected | 3 | 0.087±0.021
